According to the nanobody polyreactivity screen of Harvey et al. (2022):

Assay: yeast display, Sf9 membrane polyspecificity reagent, FACS + sequencing; frameworks hold sequencing errors
Outline: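 In a synthetic yeast display library (Saccharomyces cerevisiae BJ5465), nanobody expression was induced with galactose for 36–48 hours. FACS gates were set low and high (top ~1%) using anti-HA fluorescence for expression and streptavidin fluorescence for binding of the Sf9 membrane reagent. Each polyreactivity label is drawn from the gate of origin.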

Sequence	polyreactivity (PSR sort gate)
QVQLVESGGGLVQAGGSLRLSCAASGSTLFAYAMGWYRQAPGTERELVAAITSGASTNYADSVKGRFTISRDNAKNTVYLQMNSLKPEDTAVYYCAKDVSGTNPDYDYWGQGTQVTVSS	low polyreactivity
QVQLVESGGGLVQAGGSLRLSCAASGRTFGAYAMGWYRQAPGKERELVASISRSGGTTYYADSVKGRFTISRDNAKNTVYLQMNSLKPEDTAVYYCAAQYVRYGHYYWGQGTQVTVSS	high polyreactivity
QVQLVESGGGLVQAGGSLRLSCAASGRIFPFNAMGWYRQAPGKERELVAAISSSGGSTYYADSVKGRFTISRDNAKNTVYLQMNSLKPEDTAVYSCAATRNSDGMGYWGQGTEVTVSS	low polyreactivity
QVQLVESGGGLVQAGGSLRLSCAASGFTLYVNAMGWYRHAPGKERELVAAISRGTTTYYADSVKGRFTISRDNAKNTVYLQMNSLKPEDTAVYYCAGETGHPYEEYDYWGQGTQVTVSS	high polyreactivity
QVQLVESGVGLLQAGGSLRISCAASGSIFFDNSMGRYRQAPGKERELVAAITWSGSRTYYADSVKGRFTISRDNAKNTVYLQMNSLKPEDTAVYYSNAVYWWYWALFTVGRYDYWGQGTQVTVSS	high polyreactivity
QVQLVESGGCLVQAGGSLRLSCAPSGSIFKVYAKGWYRQAPGKVRELVAAITNGGSTYADSVKGRFTMSRDNAKYTVYLQMNSLKPEDTAVYYCDSDYRGHSGSWYDYWGQGTQVTVSS	low polyreactivity
QVQLVESGGGLVQAGGSLRLSCAASGSTISYYAMGWYRQAPGKERELVAGISGSTGTTYYADSVKGRFTISRDNAKNTVYLQMNSLKPEDTAVYYCAKLFPVARPQYGYWGQGTQVTVSS	low polyreactivity
QVQLVESGGGLVQAGGSLRLSFAASGRTFVINAMGWYRQAPGKERELVAAITWRGGSTYYADSVKGRFTISRDNAKNTVYLQMNSLKPEDTAVYYCAARWFPWLQLKRYDYWGQGTQVTVSS	low polyreactivity
QVQLVESGGGLVQAGGSLRLSCAASGSIFSRNAMGWYRQAPGKERELVAAISYSGGTTYYADSVKGRFTISRDYAKNTVYLQMNSLKPEDTAVYYCNKRYWVRTGKVSSYDYWGQGTQVSVSS	high polyreactivity
QVQLVESGGGLVQAGGSLRLSCAASGRIFTPYPMGWYRQAPGKERELVAVIRDGSTYYADSVKGRFTISRDNAKNSVYLQMNSLKPEDSAVYYCRYDIWVWWSGAYDYWGQGTQVTVSS	low polyreactivity
QVQLVESGGGLVHEGGSLRLIFAASGRIFGPNHMGWYRQAPGKERELVAAITDSCDITYYADSVKGRFTISRDNAKNTVYLQMNSLKPQDTAVYYCAADHTYENEYWGQGTQVNVSS	low polyreactivity
QVQRVESGGGLVQAGGSLRLSCAASGRTFWRNAMGWYRQAPGKERELVARISWSGGSTYYADSVKGRFTISRDNAKNTVYLQMNSLKPEDTAVYYCAKYYPGRSAFSDGNYWVQGTQVTVSS	low polyreactivity
QVQLVESGGGLVQAGGSLRLSCAASGSTFGPNPMGWYRQAPGKERELVAAISRAGRTYYADSVKGRFTISRDNAKNTVYLQMNSLKPEDTAVYYCNAGRSYHWRAGGEYDYWGQGTQVTVSS	low polyreactivity
QVQLVESGGGLVQAGGSLRLICAASGSTLTSNSMGWYRQAPGKERELVASISRRGDSTNYADSVKGRFTISRDNAKNTVYLQMNSLKPEDTAVYYCVAYGYFQSNLWSEFDYWGQGTQVTVSS	low polyreactivity
QVQLVESGGGLVQAGGSLRLSCAASGFTIWRYAMGWYRQAPWKARELVAAISRGGSTNYADSVKGRFTISRDNAKNTVYLQMNSLKPEDTAVYYCAASVQYRRLKKFYYWGQGTQVTVSS	high polyreactivity
QVQLVESSGGLVQAGGSLRLSCAHSGIIFYCYAMGCYRHSPGNLRELVAAISNNGGSTYPDSVKGRFTISRDNAKNTVYLQMNSLKPEDTAVYYGDAHPTGGVGFDAYYWGQGTQVTVSS	low polyreactivity
QVQLVESGGGLVQAGGSLRLSCSASGRTFGGNAMGWSRPAPGKERELVAAIARSGGTTYYADSVKGRFTISRDNAKNTVYLQMNSLKPEDTAVYYCNTRRYGAMYYWGQGTQVTVSS	high polyreactivity
QVQLVESGGGLVQAGGSLRLSCAASGFIFSLYAMGWYRQAPGKERELVAAISKRGGSTNYADSVKGRFTISRDNAKNTVFLQMNSLKPEDTAVYYCAKARPGFLYDHWGQGTEVTVSS	high polyreactivity
QVQLVESGGGLVQAGGSLRLSCAASGRTFIGYAMGWYRQAPGKERELVAAISSRGGRTYYADSVKGRFTISRDNAKNTVYLQMNSLKPEDTAVYYCAAGRVKHSGYDYWGQGTQVTVSS	high polyreactivity
QVQLVESGGGLVQAGGSLRLSCAASGFIFKGYDMGWYRQAPGKEREMVAAITSGSTNYADSVKGRFTNSRDNAKNTVYLQMNSVKPEDTAVYYCNAELGRATLYPRVFIERGGYWGQGTQVNVSS	low polyreactivity
QVQLQESGGGLMQAGGSQRLSCAASGSISYYSDMGWYRQAPGKEREFVAGIGYGTTTNYADSVKGRFTTSRDNAKNTVYLQMISMKPEDSAVYYCAAYQGNGYEFYYWGQGTQVTVRS	low polyreactivity
QVQLVESRAVLVQAGGSLRLSCAASGSIFYVYAMGWYRQAPGKERELVAAISSSSDSTYADSVKGRFTISRDNAKNTVYLQMNSLKPEDTAVYYCATAWYYGIVRGGLPYDYWGHGTQVTVSS	low polyreactivity

Sequence	polyreactivity (PSR sort gate)
QVQLVESGGGLVQAGGSLRLSCAASGRIFVPYLMGWYRQAPGKERELVASISDSDTSTYYADSVKGRFTISRDNAKNTVYLQMNSLKPEDTAVYYCNVDYWGQGTQVTVSS	low polyreactivity
QVQLVESGGGLVQAGGSLRLSCAASGLTFSLNAMGWYRPAPGKERELVAAIRGSGGSTYYADSVKGRFTISRDNAKNTVYLQMNSLKPEDTAVYYCAASPKRVLRESGVYWGQGTQVTVSS	high polyreactivity
QVQLVESGGGLVQAGGSLRLSCAASGRTFDGYDMGSYRQAPGKERELVAAINVVGGSTYYADSVKGRFTISRDNAKNTVYLLMNSLKPEDTEVYYCAARRSYLTNFRRYYKMDYWGQGTQVTVAS	low polyreactivity
QVQLGESGGGIVQAGGSLRLSCAASGRTFAFNAMGWYRQAPGKERELVAAIRWSGGSTYYADSVKGRFTISRDNAKNTVYLQMNSLKPEDTAVYYCATGKWGYFRYNYWGQGTQVTVSS	high polyreactivity
QVQLVESGGGLVQAGGSLRLSCAASGLTFYLYAMGWYRQAPGKERELVAAITSAGITYADSVKGRFTISRDNAKNTVYLQMNSLKPEDTAVYYCASSIDCGKCLGRRYDYWGQGSQVTVSS	low polyreactivity
QVHLVESGGGLVQAGGSLRLSCAASGSTFVTYAMGWYTQAPGKEREFVAAISSTGTGRTYYADSVKGRFTISRDNAKNTVYLQMNSLKPEDTAVYYCAADLYGTYDYCGQGTQVTVSS	low polyreactivity
QVQLVESGGGLVQAGGSLRLSCAASGSIFITYAMGWYRQAPGKERELVAAIRDSGDRTYYADSVKGRFTISRDNAKNTVYLQMNSLKPEDTAVYYCNARWQKPLKYDYWGQGTQVTVSS	low polyreactivity
QVQLVESGGGLVQAGGSLRLSCAASGSIFQSYAMGWYIQAPGKERELVAAISARGGTTNYADSVKGRFTISRDNAKNTVYLQMNSLKPEDTAVYYCAKVYRYGYSKYYYWGQGTQVTVSS	high polyreactivity
QVQLVESGGGLVQAGGSLRLSCAASGFTFRYYAMGWSRQAPGKERELVARITSGGSTNYADSVKGRFTISRDNAKNTVYLQMNSLKPEDTAVYYCAASPYRYWRMYSWGQGTQVTVSS	high polyreactivity
QVQLVESGGGLVQAGGILRLSCASSGSTFGYNVMGWYRQAPGKERELVAAISSSGGSTYYADSVKGRFTISRDTAKNTVYLQMNSLNPEDTAVYYGAADVGFRWYRYTAGPLEYDYWGQGTQVTVSS	high polyreactivity
QVQIVESCGGLFQAAGRLRLICADSRSIFSYNAMGWYRQAPGKERELVAAITSGGRTYYADSVKGRFTISRDNAKNTVYLQMNSLKPEDTGVYYCAAYQTGLHGFYSWGQGTQVTVSS	high polyreactivity
QVQLVESGGGLVQAGGSLRLSCAASGSIFVSYAMGWYRQAPGKERELVAAITYSGGRTYYADSVKGRFTISRDNAKNTVYLQMNCLKPEDTAVYYCAKRVSYPVRFPYFSYDYWGQGTQVTVSS	low polyreactivity
QVQLVESGGGLVQAGGSLRLSCAASGITFRAYALGWYRQAPGKEREFVAAISWRGGSTYYADSVKGRFTISRDNAKNTVYLQMNSLKPEDTAVYYCAVGSYDHDYWYEYWGQGTQVTVSS	high polyreactivity
QVQLVESGGGLVQAGGSLRLSCAASGLTFNKYAMGWYRQGPGKERELVAAISYRGGSTYYADSVKGRFTISRDNAKNTVYLQMNSLKPEDTAVYYCAVRYWALDDQYRYGSWGQGTQVTVSS	high polyreactivity
QVQLVESGGGLVQAGGSLRLSCAASGSTIRVNVMGWYRQAPGKERELVAAITTSGGSTYYADSVKGRFTISRDNAKNTVYLQMNSLKPEDTAVYYCNTTYPSGWGPDMDYWGQGTQVTVSS	low polyreactivity
QVQLVESGGGLVQAGGSLRLSCAASGSIIHPYTMGWYRPAPGKERELVAGISESSDSTYYADSVKGRFTISRDNAKNTVYLQMNSLKPEYTAVYYCNRDHDWPLSVLEVDYWGQGTQVTVSS	low polyreactivity
QVQLVESGGGLVQAGGSLRLSCAASGSISGRYAMGWYRQAPGKERELVAAISWIGGSTYYADSVKGRFTISRDNAKNTVYLQMNSLKPEDTAVYYCNVTIDTRTHPLLVVFYGYDYWGQGTQVTVSS	low polyreactivity
QVQLVESGGGLVQAGGSLRLSCAASGSIFYYNAMGWYRQAPGKERELVATITSAVSTNYADSVKWRFTISRDNAKNTVYLQMNSLKPEDTAVYYCAADVVYISGYDYWGQGTQVTVSS	low polyreactivity
QVQLVESGGGLDQAGGSLPLSCAASGFTFGHYAMGWYRQAPGKERELVAAISSGDRTYYADSVKGRFTISRDNAKNTVYLQMNSLKPEDTAVYYCAADGIYTYEYWGQGTQVTVSS	low polyreactivity
QVQLVESGGGLVQAGGSLRLSCAASGSTFYRYAMGWYRQAPGKEREFVAAITGSGGRTYYADSVKGRFTISRDNAKNTVYLQMNSLKPEDTAVYYCAARYYYFYQISYRYDYWGQGTQVTVSS	high polyreactivity
QVQLVESGGGLVQAGGTLRISCAASGRTFRKYAMGWYRQAPGKERELVAAISWSGGSTYYANSVKGRFTISRDNAKNTVYLQMNSLKPEDTAVYYCAAVPVHTGSLYWGFTTGYDYWGQGTQVTVSS	low polyreactivity
